A word on the stoichiometry N: it is the number of molecules, sites or subunits per partner or assembly.

For the test, the target named is Chicken Best1 residues 1–405 (GgBest1) (chicken). As to the kind of experiment: crystal structure; GgBest1–Fab complex, hanging-drop vapour diffusion; P2_1 form in CYMAL-6 or CYMAL-6-NG, 0–60 mM NaCl, 50 mM sodium acetate pH 4.0, 5% PEG 4000, 20% glycerol; C2 form in DM, 120 mM NaCl, 50 mM Tris pH 8.5, 8.5% PEG 4000, 20% glycerol; sample supplemented with 50 mM GABA.

As for “Chicken Best1 residues 1–405 (GgBest1) (domain or fragment)”, the stoichiometry N amounted to 5.

These data come from paper PMC4784663.
